Values quoted from earlier work, collected in article PMC5520056, “Cryo-EM structures of the ATP-bound Vps4^E233Q hexamer and its complex with Vta1 at near-atomic resolution” (Nature Communications, 2017).

Target: Vta1 VSL (Saccharomyces cerevisiae) (UniProt Q06263)
Sequence (Q06263 280-330): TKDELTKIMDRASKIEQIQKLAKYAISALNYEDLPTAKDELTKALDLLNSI

Chain of Vps4 β-domain (P52917 351-397): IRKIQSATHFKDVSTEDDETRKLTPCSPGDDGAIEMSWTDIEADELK

Kd: 85 µM
Substance: Vps4 β-domain (from UniProt P52917)
